# T1: FcγRIIb extracellular domain with C-terminal His tag (human, UniProt P31994 43-217)
# T1 construct: extracellular domain; Soluble receptor expressed in FreeStyle293 cells, used as analyte in Biacore; also called FcgRIIb; CD32B; not shown: His tag at the C terminus
# T1 sequence (looked up): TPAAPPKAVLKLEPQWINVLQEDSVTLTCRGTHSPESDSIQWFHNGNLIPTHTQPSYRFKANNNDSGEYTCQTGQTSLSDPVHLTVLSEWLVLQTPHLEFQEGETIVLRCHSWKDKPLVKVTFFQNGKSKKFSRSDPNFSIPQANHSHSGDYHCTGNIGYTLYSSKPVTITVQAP
# T2: FcγRIIb (human, UniProt P31994 43-217)
# T2 construct: extracellular domain; also called FcgRIIb; 2b; not shown: His tag at the C terminus
# T2 sequence (looked up): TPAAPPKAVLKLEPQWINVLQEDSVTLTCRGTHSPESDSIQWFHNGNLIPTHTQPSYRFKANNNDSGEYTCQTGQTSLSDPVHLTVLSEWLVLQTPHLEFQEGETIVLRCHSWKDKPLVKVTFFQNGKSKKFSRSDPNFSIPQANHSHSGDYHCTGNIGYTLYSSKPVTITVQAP
# What was measured:
# [1] = target: T3, FcγRIa extracellular domain with C-terminal His tag (human, UniProt P12314 16-292); assay: SPR (Biacore), antibody captured via antigen peptide, FcγR as analyte; binding relative to GpH7-A5/GpH7-B3/GpL16-k0 = 100
# T3 construct: extracellular domain; Soluble receptor expressed in FreeStyle293 cells, used as analyte in Biacore; also called FcgRI; CD64; not shown: His tag at the C terminus
# [2] = target: T1, FcγRIIb extracellular domain with …; assay: as above
# [3] = target: T4, FcγRIa (human, UniProt P12314 16-292); assay: SPR (Biacore), antibody captured, FcγR as analyte; binding as % of GpH7-A5/GpH7-B3/GpL16-k0
# T4 construct: extracellular domain; also called FcgRI; 1a; not shown: His tag at the C terminus
# [4] = target: T2, FcγRIIb; assay: as above
# T3 sequence (P12314 16-292): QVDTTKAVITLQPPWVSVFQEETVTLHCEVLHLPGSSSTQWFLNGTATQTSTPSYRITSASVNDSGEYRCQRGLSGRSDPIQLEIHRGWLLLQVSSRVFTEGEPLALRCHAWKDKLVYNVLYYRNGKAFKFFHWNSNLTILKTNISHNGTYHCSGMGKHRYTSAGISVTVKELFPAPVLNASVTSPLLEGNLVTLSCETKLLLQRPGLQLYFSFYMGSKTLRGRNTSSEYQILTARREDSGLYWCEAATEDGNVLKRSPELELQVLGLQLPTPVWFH
# T4 sequence (P12314 16-292): as above
He/Con_1a [1],He/Con_2b [2],He/Con_1a [3],He/Con_2b [4],Binder
102 % of control (GpH7-A5/GpH7-B3/GpL16-k0 = 100),76.8 % of control (GpH7-A5/GpH7-B3/GpL16-k0 = 100),,,"GpH7-A5/GpH7-B3 variant P271_07I/GpL16-k0 (antibody, human IgG1, kappa, Heterodimerized anti-glypican-3 IgG1; substitution in only one H chain; also called P271I; He Ab) heavy 1: not shown heavy 2: not shown light: DIVMTQSPLSLPVTPGEPASISCQASESLVHSNRNTYLHWYLQKPGQSPQLLIYKVSNRFSGVPDRFSGSGSGTDFTLKISRVEAEDVGVYYCSQNTHVPPTFGQGTKVEIERTVAAPSVFIFPPSDEQLKSGTASVVCLLNNFYPREAKVQWKVDNALQSGNSQESVTEQDSKDSTYSLSSTLTLSKADYEKHKVYACEVTHQGLSSPVTKSFNRGEC"
103 % of control (GpH7-A5/GpH7-B3/GpL16-k0 = 100),67.5 % of control (GpH7-A5/GpH7-B3/GpL16-k0 = 100),,,"GpH7-A5/GpH7-B3 variant Q295_05P/GpL16-k0 (antibody, human IgG1, kappa, Heterodimerized anti-glypican-3 IgG1; substitution in only one H chain; also called Q295P; He Ab) heavy 1: not shown heavy 2: not shown light: DIVMTQSPLSLPVTPGEPASISCQASESLVHSNRNTYLHWYLQKPGQSPQLLIYKVSNRFSGVPDRFSGSGSGTDFTLKISRVEAEDVGVYYCSQNTHVPPTFGQGTKVEIERTVAAPSVFIFPPSDEQLKSGTASVVCLLNNFYPREAKVQWKVDNALQSGNSQESVTEQDSKDSTYSLSSTLTLSKADYEKHKVYACEVTHQGLSSPVTKSFNRGEC"
103 % of control (GpH7-A5/GpH7-B3/GpL16-k0 = 100),58.1 % of control (GpH7-A5/GpH7-B3/GpL16-k0 = 100),,,"GpH7-A5/GpH7-B3 variant P271_20W/GpL16-k0 (antibody, human IgG1, kappa, Heterodimerized anti-glypican-3 IgG1; substitution in only one H chain; also called P271W; He Ab) heavy 1: not shown heavy 2: not shown light: DIVMTQSPLSLPVTPGEPASISCQASESLVHSNRNTYLHWYLQKPGQSPQLLIYKVSNRFSGVPDRFSGSGSGTDFTLKISRVEAEDVGVYYCSQNTHVPPTFGQGTKVEIERTVAAPSVFIFPPSDEQLKSGTASVVCLLNNFYPREAKVQWKVDNALQSGNSQESVTEQDSKDSTYSLSSTLTLSKADYEKHKVYACEVTHQGLSSPVTKSFNRGEC"
103 % of control (GpH7-A5/GpH7-B3/GpL16-k0 = 100),52.3 % of control (GpH7-A5/GpH7-B3/GpL16-k0 = 100),,,"GpH7-A5/GpH7-B3 variant P271_15Y/GpL16-k0 (antibody, human IgG1, kappa, Heterodimerized anti-glypican-3 IgG1; substitution in only one H chain; also called P271Y; He Ab) heavy 1: not shown heavy 2: not shown light: DIVMTQSPLSLPVTPGEPASISCQASESLVHSNRNTYLHWYLQKPGQSPQLLIYKVSNRFSGVPDRFSGSGSGTDFTLKISRVEAEDVGVYYCSQNTHVPPTFGQGTKVEIERTVAAPSVFIFPPSDEQLKSGTASVVCLLNNFYPREAKVQWKVDNALQSGNSQESVTEQDSKDSTYSLSSTLTLSKADYEKHKVYACEVTHQGLSSPVTKSFNRGEC"
104 % of control (GpH7-A5/GpH7-B3/GpL16-k0 = 100),75.7 % of control (GpH7-A5/GpH7-B3/GpL16-k0 = 100),,,"GpH7-A5/GpH7-B3 variant Q295_03V/GpL16-k0 (antibody, human IgG1, kappa, Heterodimerized anti-glypican-3 IgG1; substitution in only one H chain; also called Q295V; He Ab) heavy 1: not shown heavy 2: not shown light: DIVMTQSPLSLPVTPGEPASISCQASESLVHSNRNTYLHWYLQKPGQSPQLLIYKVSNRFSGVPDRFSGSGSGTDFTLKISRVEAEDVGVYYCSQNTHVPPTFGQGTKVEIERTVAAPSVFIFPPSDEQLKSGTASVVCLLNNFYPREAKVQWKVDNALQSGNSQESVTEQDSKDSTYSLSSTLTLSKADYEKHKVYACEVTHQGLSSPVTKSFNRGEC"
103 % of control (GpH7-A5/GpH7-B3/GpL16-k0 = 100),88.6 % of control (GpH7-A5/GpH7-B3/GpL16-k0 = 100),,,"GpH7-A5/GpH7-B3 variant P271_19Q/GpL16-k0 (antibody, human IgG1, kappa, Heterodimerized anti-glypican-3 IgG1; substitution in only one H chain; also called P271Q; He Ab) heavy 1: not shown heavy 2: not shown light: DIVMTQSPLSLPVTPGEPASISCQASESLVHSNRNTYLHWYLQKPGQSPQLLIYKVSNRFSGVPDRFSGSGSGTDFTLKISRVEAEDVGVYYCSQNTHVPPTFGQGTKVEIERTVAAPSVFIFPPSDEQLKSGTASVVCLLNNFYPREAKVQWKVDNALQSGNSQESVTEQDSKDSTYSLSSTLTLSKADYEKHKVYACEVTHQGLSSPVTKSFNRGEC"
,,97.7 % of control,113 % of control,"GpH7-A5/GpH7-B3 variant A327_18N/GpL16-k0 (antibody, human IgG1, kappa, heterodimerized IgG1; alteration in the GpH7-B3 H chain only; also called He Ab) heavy 1: not shown heavy 2: not shown light: DIVMTQSPLSLPVTPGEPASISCQASESLVHSNRNTYLHWYLQKPGQSPQLLIYKVSNRFSGVPDRFSGSGSGTDFTLKISRVEAEDVGVYYCSQNTHVPPTFGQGTKVEIERTVAAPSVFIFPPSDEQLKSGTASVVCLLNNFYPREAKVQWKVDNALQSGNSQESVTEQDSKDSTYSLSSTLTLSKADYEKHKVYACEVTHQGLSSPVTKSFNRGEC"
,,99.9 % of control,124 % of control,"GpH7-A5/GpH7-B3 variant N325_09D/GpL16-k0 (antibody, human IgG1, kappa, heterodimerized IgG1; alteration in the GpH7-B3 H chain only; also called He Ab) heavy 1: not shown heavy 2: not shown light: DIVMTQSPLSLPVTPGEPASISCQASESLVHSNRNTYLHWYLQKPGQSPQLLIYKVSNRFSGVPDRFSGSGSGTDFTLKISRVEAEDVGVYYCSQNTHVPPTFGQGTKVEIERTVAAPSVFIFPPSDEQLKSGTASVVCLLNNFYPREAKVQWKVDNALQSGNSQESVTEQDSKDSTYSLSSTLTLSKADYEKHKVYACEVTHQGLSSPVTKSFNRGEC"
103 % of control (GpH7-A5/GpH7-B3/GpL16-k0 = 100),90.2 % of control (GpH7-A5/GpH7-B3/GpL16-k0 = 100),,,"GpH7-A5/GpH7-B3 variant P271_11K/GpL16-k0 (antibody, human IgG1, kappa, Heterodimerized anti-glypican-3 IgG1; substitution in only one H chain; also called P271K; He Ab) heavy 1: not shown heavy 2: not shown light: DIVMTQSPLSLPVTPGEPASISCQASESLVHSNRNTYLHWYLQKPGQSPQLLIYKVSNRFSGVPDRFSGSGSGTDFTLKISRVEAEDVGVYYCSQNTHVPPTFGQGTKVEIERTVAAPSVFIFPPSDEQLKSGTASVVCLLNNFYPREAKVQWKVDNALQSGNSQESVTEQDSKDSTYSLSSTLTLSKADYEKHKVYACEVTHQGLSSPVTKSFNRGEC"
103 % of control (GpH7-A5/GpH7-B3/GpL16-k0 = 100),93.3 % of control (GpH7-A5/GpH7-B3/GpL16-k0 = 100),,,"GpH7-A5/GpH7-B3 variant P271_18N/GpL16-k0 (antibody, human IgG1, kappa, Heterodimerized anti-glypican-3 IgG1; substitution in only one H chain; also called P271N; He Ab) heavy 1: not shown heavy 2: not shown light: DIVMTQSPLSLPVTPGEPASISCQASESLVHSNRNTYLHWYLQKPGQSPQLLIYKVSNRFSGVPDRFSGSGSGTDFTLKISRVEAEDVGVYYCSQNTHVPPTFGQGTKVEIERTVAAPSVFIFPPSDEQLKSGTASVVCLLNNFYPREAKVQWKVDNALQSGNSQESVTEQDSKDSTYSLSSTLTLSKADYEKHKVYACEVTHQGLSSPVTKSFNRGEC"

# From patent US20180155451A1 (published 2018)
